The source of these data is patent WO2019096294A1.

In this test the target is His-tagged human prothrombin (human) (UniProt P00734). Briefly: binding ELISA; His-tagged human prothrombin coated on plate. (In general: An ELISA detects its analyte on a solid surface through an enzyme-linked reagent.)

Ichorcumab (antibody): the concentration for a half-maximal effect (EC50) – broadly, the concentration at which the effect is half-maximal – is 0.282 µg/mL.
